{"source": "patent US20240279622A1", "about": "“COELENTERAZINE-UTILIZING LUCIFERASES WITH STABLE GLOW-TYPE LIGHT EMISSION AND METHODS OF PRODUCING AND USING THEREOF” (MASARYKOVA UNIVERZITA, priority 2021, published 2024)", "molecules": {"B1": {"name": "AncFT: Ancestral protein AncHLD-RLuc with the L9-α4 region transplanted from RLuc; glow-type coelenterazine-utilizing luciferase (protein)", "chain": "MVSASQRTTSTATGDEWWAKCKQVDVLDSEMSYYDSDPGKHKNTVIFLHGNPTSSYLWRNVIPHVEPLARCLAPDLIGMGKSGKLPNHSYRFVDHYRYLSAWFDSVNLPEKVTIVCHDWGSGLGFHWCNEHRDRVKGIVHMESVVDVIESWDEWPDIEEDIALIKSEAGEEMVLKKNFFIERLLPSSIMRKLSEEEMDAYREPFVEPGESRRPTLTWPREIPIKGDGPEDVIEIVKSYNKWLSTSKDIPKLFINADPGFFSNAIKKVTKNWPNQKTVTVKGLHFLQEDSPEEIGEAIADFLNELTK", "modifications": "Amino acid sequence of AncFT"}, "B2": {"name": "AncFT-D160A: AncFT carrying the single-point D160A mutation; blue-shifted emission (protein)", "chain": "B1 chain with D160A", "modifications": "Amino acid sequence of AncFT-D160A", "notes": "AncFT carrying the single-point D160A mutation; blue-shifted emission"}, "B3": {"name": "AncFT-L14: AncFT with additionally transplanted L14 loop (LVKGGKP at positions 223 to 229) from RLuc (protein)", "chain": "B1 chain with I223L, K224V, G225K, D226G, P228K, E229P", "modifications": "Amino acid sequence of AncFT-L14", "notes": "AncFT with additionally transplanted L14 loop (LVKGGKP at positions 223 to 229) from RLuc"}, "B4": {"name": "Super RLuc8: Recently reported RLuc8 enzyme variant (Rahnama et el., 2017) (protein)", "chain": "MTSKVYDPEQRKRMITGPQWWARCKQMNVLDSFINYYDSEKHAENAVIFLHGNATSSYLWRHVVPHIEPVARCIIPDLIGMGKSGKSGNGSYRLLDHYKYLTAWFELLNLPKKIIFVGHDWGSALAFHYAYEHQDRIKAIVHMESVVDVIESWKNWPDIEEELALIKSEEGEKMVLENNFFVETVLPSVIMRKLEPEEFAAYLEPFKEKGEVRRPTLSWPREIPLVKGGKPDVVQIVRNYNAYLRASDDLPKLFIESDPGWFSNAIIEGAKKFPNTEFVKVKGLHFLQEDAPDEMGKYIKSFVERVLKNEQ", "modifications": "Super RLuc8"}}, "key": {"[1]": {"assay": "Steady-state kinetic analysis of full-conversion cumulative luminescence curves", "format": "biochemical", "settings": "for kcat / Kd: 100 mM phosphate buffer pH 7.5, 37° C.; for Kd: read-out: Kp (equilibrium dissociation constant for enzyme-product complex); for Decrease of ratio Km/Kp: compared to the other tested variants; for Glow-type effectivity: kcat/Km divided by Km/Kp", "procedure": "Each luminescence trace was measured in 3 repetitions. The concentration of coelenterazine in the final reaction mixture ranged from 0.2 to 7.9 μM while the concentration of luciferase enzymes ranged from 17 to 640 nM.\nAn updated protocol applying new standards for collecting and fitting steady-state kinetic data was used. Unlike the classical initial velocity analysis, which requires a sophisticated luminometer calibration and quantum yield evaluation, luminescence data were recorded when letting the reaction proceed to completion beyond the initial linear phase. The recorded luminescence traces (rate vs. time) were transformed to reaction progress curves corresponding to cumulative luminescence in time. The transformed kinetic data (product vs. time) were fitted globally with the KinTek Explorer (KinTek Corporation, USA). The software allows for the input of a given kinetic model via a simple text description, and the program then derives the differential equations needed for numerical integration automatically.\nNumerical integration of rate equations searching a set of kinetic parameters that produce a minimum χ^2 value was performed using the Bulirsch-Stoer algorithm with adaptive step size, and nonlinear regression to fit data was based on the Levenberg-Marquardt method. To account for fluctuations in experimental data, enzyme or substrate concentrations were slightly adjusted (5%) to derive best fits. Residuals were normalized by sigma values for each data point. The standard error was calculated from the covariance matrix during nonlinear regression. In addition to standard error values, more rigorous analysis of the variation of the kinetic parameters was accomplished by confidence contour analysis by using FitSpace Explorer (KinTek Corporation, USA). In these analyses, the lower and upper limits for each parameter were derived from the confidence contour obtained from setting χ^2 threshold at 0.9. The scaling factor, relating luminescence signal to product concentration, was applied as one of the fitted parameters, well constrained by end-point levels of kinetic traces recorded at particular substrate concentrations. Depletion of the available substrate after the reaction was ensured by repeated injection of the fresh enzyme.\nThe steady-state model, described by Equation (4), was used to obtain the values of turnover number kcat, Michaelis constant Km, and equilibrium dissociation constant for enzyme-product complex Kp. A conservative estimate for diffusion-limited substrate and product binding k1 and k3 (100 μM^−1·s^−1) was used as a fixed value to mimic the rapid equilibrium assumption. An alternative form of the model, described by Equation (5), was used to obtain estimates of kcat/Km directly by setting k−1=0."}, "[2]": {"assay": "Stopped-flow pre-steady-state kinetics of substrate binding (tryptophan fluorescence quenching)", "settings": "15° C.", "procedure": "The measurement was performed at 15° C. in 100 mM potassium phosphate buffer pH 7.5. Rapid mixing of the components was achieved using the Stopped-Flow SFM 3000 combined with the MOS-500 spectrometer (BioLogic, France). The reaction was initiated by mixing 75 μL of an enzyme with 75 μL of coelenterazine and then monitored by the change of native tryptophan fluorescence (295 nm excitation, 340±13 nm emission). The fluorescence changes were caused by the quenching effect of the coelenterazine substrate upon its binding by an enzyme. The experiment was designed in two different modes, varying either the concentration of the coelenterazine substrate or the concentration of an enzyme. Each kinetic trace was measured in seven consecutive replicates and averaged. The concentration of coelenterazine in the final reaction mixture ranged from 0.9 to 90 μM while the concentration of luciferase enzymes ranged from 0.4 to 94 μM.\nThe collected double-exponential kinetic traces were fitted globally with the KinTek Explorer (KinTek Corporation, USA). The software allows for the input of a given kinetic model via a simple text description, and the program then derives the differential equations needed for numerical integration automatically. Numerical integration of rate equations searching a set of kinetic parameters that produce a minimum χ^2 value was performed using the Bulirsch-Stoer algorithm with adaptive step size, and nonlinear regression to fit data was based on the Levenberg-Marquardt method. Residuals were normalized by sigma values for each data point. The standard error was calculated from the covariance matrix during nonlinear regression. In addition to standard error values, more rigorous analysis of the variation of the kinetic parameters was accomplished by confidence contour analysis by using FitSpace Explorer (KinTek Corporation, USA). In these analyses, the lower and upper limits for each parameter were derived from the confidence contour obtained from setting the χ^2 threshold at 0.95.\nThe time-course of the fluorescence quenching upon substrate binding was described with Equation (7) according to the induced-fit binding mechanism and the mechanism was fit directly to the collected kinetic data to obtain the values of elementary rate constants describing the substrate binding process. The quality of the best fits was compared in terms of χ^2 values, “chi-by-eye” assessment, and confidence contour analysis assessing constraint and independency of the determined parameters which confirmed that the obtained values are well-defined by the collected kinetic data."}, "[3]": {"assay": "Anaerobic equilibrium binding of coelenterazine substrate (fluorescence)", "procedure": "The experiments were performed under strictly anaerobic conditions to prevent enzymatic oxidation of interacting ligands. To do so, all the equipment and material, including water, buffer, pipettes, tips, syringes, microplates, and sealing, were made anaerobic by incubating them overnight in the anaerobic glovebox Belle MR2 (Belle Technology, UK). The box was filled with ultra-high purity (UHP) nitrogen atmosphere containing the residual oxygen concentration of 2.3 ppm, as determined by the oxygen meter O2M-3 (Belle Technology, UK). Liquids were aliquoted to the volume of maximally 50 mL and were stirred overnight in the box to release any dissolved oxygen. Two hours prior to the experiment, a closed bottle with an evacuated lyophilized enzyme (oxygen depleted) was put into the glovebox, dissolved with anaerobic water, and incubated to remove any remaining oxygen possibly dissolved in the solution. Similarly, the stock solution of coelenterazine or coelenteramide in ethanol, which was long-term stored in a freezer under the nitrogen atmosphere without oxygen, was put into the glovebox in a closed bottle. A small aliquot of coelenterazine/coelenteramide was transferred into a new empty bottle and kept open for about 20 minutes to remove the remaining dissolved oxygen. After the incubation, a few microliters of an enzyme were mixed with the same amount of coelenterazine, and the mixture was visually inspected for any possible bioluminescence. If no light was observed and the mixture remained yellow even after a minute, all the reagents were ready for anaerobic measurements.\n(§1) In the anaerobic glovebox, 200 μL of a differently concentrated enzyme was put into a separate well in a microplate and into each of these wells, 5 μL of coelenterazine or coelenteramide stock solution was added. As a blank, 200 μL of the enzyme was mixed with 5 μL of ethanol for each enzyme concentration. […] The extent of coelenterazine binding at each concentration was determined by measuring fluorescence spectra ranging from 480 to 580 nm upon excitation at 420 nm using the microplate spectrophotometer Varioskan LUX (Thermo Scientific, USA). Binding of coelenteramide was monitored by measuring fluorescence spectra ranging from 350 to 700 nm upon excitation at 330 nm. […]\nThe obtained fluorescence spectra were visually inspected for characteristic peaks, and the value of the maximal fluorescence intensity Fluomax at these peaks was plotted against the enzyme concentration. The final value of the dissociation constant Kd was determined by fitting the dependence with the hyperbolic Equation (8) using the software Origin 6.1 (OriginLab, USA)."}, "[4]": {"assay": "Anaerobic equilibrium binding of coelenteramide product (fluorescence)", "settings": "pH 7.5, 30° C., read-out: Dissociation constant Kd, Coelenteramide product", "procedure": "The experiments were performed under strictly anaerobic conditions to prevent enzymatic oxidation of interacting ligands. To do so, all the equipment and material, including water, buffer, pipettes, tips, syringes, microplates, and sealing, were made anaerobic by incubating them overnight in the anaerobic glovebox Belle MR2 (Belle Technology, UK). The box was filled with ultra-high purity (UHP) nitrogen atmosphere containing the residual oxygen concentration of 2.3 ppm, as determined by the oxygen meter O2M-3 (Belle Technology, UK). Liquids were aliquoted to the volume of maximally 50 mL and were stirred overnight in the box to release any dissolved oxygen. […] If no light was observed and the mixture remained yellow even after a minute, all the reagents were ready for anaerobic measurements.\nas §1, with “added.” for “added. As a blank, 200 μL of the enzyme was mixed with 5 μL of ethanol for each enzyme concentration.”"}, "[5]": {"assay": "Thermal unfolding by NanoDSF (tryptophan fluorescence)", "format": "physicochemical", "settings": "100 mM potassium phosphate buffer pH 7.5, 1° C./min", "procedure": "Thermal unfolding was studied using NanoDSF Prometheus (NanoTemper, Germany) by monitoring tryptophan fluorescence over the temperature range of 20 to 90° C., at a heating rate of 1° C./min. The melting temperatures (Tonset and Tm) were evaluated directly by ThermControl v2.0.2."}}, "note": "Positions count from the first letter of the chain named. Numbers in names are those of the source."}
{"molecule": "B1", "values": [{"measurement": "kcat", "setting": "[1]", "result": "0.111 ± 0.001", "unit": "s⁻¹"}, {"measurement": "Kd", "setting": "[1]", "result": "500 ± 100", "unit": "nM"}, {"measurement": "Decrease of ratio Km/Kp", "setting": "[1]", "result": 10, "unit": "fold"}, {"measurement": "Glow-type effectivity", "setting": "[1]", "result": "12 ± 3"}, {"measurement": "k+2", "setting": "[2]; pH 7.5", "result": "31.9 ± 1.1", "unit": "s⁻¹"}, {"measurement": "k−1", "setting": "[2]; pH 7.5", "result": "367 ± 5", "unit": "s⁻¹"}, {"measurement": "k−2", "setting": "[2]; pH 7.5", "result": "27.5 ± 0.4", "unit": "s⁻¹"}, {"measurement": "k+1", "setting": "[2]; pH 7.5, induced-fit binding mechanism", "result": "5.21e+06 ± 70000", "unit": "M⁻¹ s⁻¹"}, {"measurement": "Kd", "setting": "[3]; anaerobic, pH 7.5, 30° C., read-out: Dissociation constant Kd, Coelenterazine substrate", "result": "12000 ± 5000", "unit": "nM"}, {"measurement": "Kd ratio substrate/product", "setting": "[3]; ratio", "result": "0.7 ± 0.3"}, {"measurement": "Kd", "setting": "[4]", "result": "16000 ± 2000", "unit": "nM"}, {"measurement": "Tm", "setting": "[5]", "result": "56.6 ± 0.1", "unit": "°C"}, {"measurement": "Tonset", "setting": "[5]", "result": "50.5 ± 0.1", "unit": "°C"}]}
{"molecule": "B2", "values": [{"measurement": "kcat", "setting": "[1]", "result": "0.339 ± 0.001", "unit": "s⁻¹"}, {"measurement": "Kd", "setting": "[1]", "result": "230 ± 10", "unit": "nM"}, {"measurement": "Decrease of ratio Km/Kp", "setting": "[1]", "result": 10, "unit": "fold"}, {"measurement": "Glow-type effectivity", "setting": "[1]", "result": "3.6 ± 0.3"}, {"measurement": "Tm", "setting": "[5]", "result": "57.9 ± 0.1", "unit": "°C"}, {"measurement": "Tonset", "setting": "[5]", "result": "51.5 ± 0.1", "unit": "°C"}]}
{"molecule": "B3", "values": [{"measurement": "kcat", "setting": "[1]", "result": "0.168 ± 0.001", "unit": "s⁻¹"}, {"measurement": "Kd", "setting": "[1]", "result": "550 ± 30", "unit": "nM"}, {"measurement": "Improvement of glow-type effectivity", "setting": "[1]; compared to AncFT", "result": 4, "unit": "fold"}, {"measurement": "Improvement of glow-type effectivity", "setting": "[1]; compared to RLuc8", "result": "more than 20 fold"}, {"measurement": "Decrease of ratio Km/Kp", "setting": "[1]", "result": 10, "unit": "fold"}, {"measurement": "Glow-type effectivity", "setting": "[1]", "result": "48 ± 6"}, {"measurement": "Tm", "setting": "[5]", "result": "47.0 ± 0.1", "unit": "°C"}, {"measurement": "Tonset", "setting": "[5]", "result": "39.8 ± 0.2", "unit": "°C"}]}
{"molecule": "B4", "values": [{"measurement": "kcat", "setting": "[1]", "result": "6.49 ± 0.05", "unit": "s⁻¹"}, {"measurement": "Kd", "setting": "[1]", "result": "920 ± 10", "unit": "nM"}, {"measurement": "Glow-type effectivity", "setting": "[1]", "result": "0.17 ± 0.02"}, {"measurement": "Tm", "setting": "[5]", "result": "50.1 ± 0.2", "unit": "°C"}, {"measurement": "Tonset", "setting": "[5]", "result": "39.1 ± 0.3", "unit": "°C"}]}
